# T1: plexinD1-Fc (ectodomain of mouse plexinD1 as C-terminal Fc-fusion construct) (mouse, UniProt Q3UH93 49-1271)
# T1 sequence (looked up): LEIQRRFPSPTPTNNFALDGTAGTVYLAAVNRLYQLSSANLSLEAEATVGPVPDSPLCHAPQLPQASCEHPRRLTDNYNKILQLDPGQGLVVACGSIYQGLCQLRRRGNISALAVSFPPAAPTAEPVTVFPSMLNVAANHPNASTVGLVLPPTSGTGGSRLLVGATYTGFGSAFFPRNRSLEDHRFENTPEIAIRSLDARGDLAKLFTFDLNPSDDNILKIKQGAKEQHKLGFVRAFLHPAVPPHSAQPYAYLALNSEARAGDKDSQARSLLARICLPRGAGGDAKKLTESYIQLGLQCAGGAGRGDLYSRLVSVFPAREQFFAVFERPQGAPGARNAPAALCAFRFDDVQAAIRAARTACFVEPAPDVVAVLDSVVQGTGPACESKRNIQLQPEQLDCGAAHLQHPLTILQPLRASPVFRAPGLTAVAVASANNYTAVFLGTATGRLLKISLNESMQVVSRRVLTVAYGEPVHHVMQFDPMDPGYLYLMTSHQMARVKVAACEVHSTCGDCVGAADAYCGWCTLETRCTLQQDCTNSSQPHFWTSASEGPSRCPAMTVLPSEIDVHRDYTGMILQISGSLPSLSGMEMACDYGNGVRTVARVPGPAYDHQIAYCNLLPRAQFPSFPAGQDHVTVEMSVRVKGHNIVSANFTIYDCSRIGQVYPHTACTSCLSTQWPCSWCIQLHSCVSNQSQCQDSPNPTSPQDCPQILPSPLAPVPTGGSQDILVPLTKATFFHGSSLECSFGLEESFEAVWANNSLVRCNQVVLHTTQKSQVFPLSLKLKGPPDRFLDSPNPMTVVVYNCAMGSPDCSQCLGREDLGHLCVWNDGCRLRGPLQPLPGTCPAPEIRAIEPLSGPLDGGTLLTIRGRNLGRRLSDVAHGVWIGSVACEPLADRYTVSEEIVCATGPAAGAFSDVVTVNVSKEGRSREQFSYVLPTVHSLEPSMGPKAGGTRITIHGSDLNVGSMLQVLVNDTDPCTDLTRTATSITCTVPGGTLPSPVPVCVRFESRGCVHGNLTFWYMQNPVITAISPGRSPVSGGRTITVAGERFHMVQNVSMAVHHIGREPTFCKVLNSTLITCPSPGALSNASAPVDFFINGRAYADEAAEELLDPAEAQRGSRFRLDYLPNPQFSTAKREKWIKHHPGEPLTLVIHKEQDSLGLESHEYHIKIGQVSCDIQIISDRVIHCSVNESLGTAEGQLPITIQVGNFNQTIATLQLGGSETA
# Target: T1, plexinD1-Fc (ectodomain of mouse …)
# Test: SPR
binder,measurement,value
"sema3E-Fc (semaphorin 3E as C-terminal Fc-fusion construct) (Fc fusion, UniProt P70275 26-775, looked up) ANPSYPRLRLSHKELLELNRTSIFQSPLGFLDLHTMLLDEYQERLFVGGRDLVYSLNLERVSDGYREIYWPSTAVKVEECIMKGKDANECANYIRVLHHYNRTHLLTCATGAFDPHCAFIRVGHHSEEPLFHLESHRSERGRGRCPFDPNSSFVSTLVGNELFAGLYSDYWGRDSAIFRSMGKLGHIRTEHDDERLLKEPKFVGSYMIPDNEDRDDNKMYFFFTEKALEAENNAHTIYTRVGRLCVNDMGGQRILVNKWSTFLKARLVCSVPGMNGIDTYFDELEDVFLLPTRDPKNPVIFGLFNTTSNIFRGHAVCVYHMSSIREAFNGPYAHKEGPEYHWSLYEGKVPYPRPGSCASKVNGGKYGTTKDYPDDAIRFARMHPLMYQPIKPVHKKPILVKTDGKYNLRQLAVDRVEAEDGQYDVLFIGTDTGIVLKVITIYNQETEWMEEVILEELQIFKDPAPIISMEISSKRQQLYIGSASAVAQVRFHHCDMYGSACADCCLARDPYCAWDGISCSRYYPTGAHAKRRFRRQDVRHGNAAQQCFGQQFVGDALDRTEERLAYGIESNSTLLECTPRSLQAKVIWFVQKGRDVRKEEVKTDDRVVKMDLGLLFLRVRKSDAGTYFCQTVEHNFVHTVRKITLEVVEEHKVEGMFHKDHEEERHHKMPCPPLSGMSQGTKPWYKEFLQLIGYSNFQRVEEYCEKVWCTDKKRKKLKMSPSKWKYANPQEKRLRSKAEHFRLPRHTLLS",Kd,43.4 nM

# From PMC2615553 (Immunity, 2008)
